Laboratory results from article PMC2562391.

Columns and labels:
Assay in all cases: FRET or BRET; two-photon FLIM-FRET in living HeLa cells co-transfected with 0.5 μg of each plasmid, 24 h post transfection; eGFP fusion as donor, mCherry or mCherry fusion as acceptor; E from the donor lifetime with and without acceptor; read at the nuclear envelope, in the cytoplasm, in the nucleus and over the whole cell
[1] = target: Vpr-mCherry (HIV-1 (strain LAI))
[2] = target: mCherry-Vpr (HIV-1 (strain LAI))
[3] = target: R90K Vpr-mCherry (HIV-1 (strain LAI))
[4] = target: I60A Vpr-mCherry (HIV-1 (strain LAI))
[5] = target: W54G Vpr-mCherry (HIV-1 (strain LAI))
[6] = target: R77Q Vpr-mCherry (HIV-1 (strain LAI))
[7] = target: Q3R Vpr-mCherry (HIV-1 (strain LAI))

eGFP-Vpr (natural protein)
FRET efficiency E (cytoplasm) [1]: 9% | FRET efficiency E (nuclear envelope) [1]: 13% | FRET efficiency E (nucleus) [1]: 6% | FRET efficiency E (whole cell) [1]: 9% | FRET efficiency E (cytoplasm) [2]: 7% | FRET efficiency E (nuclear envelope) [2]: 13% | FRET efficiency E (nucleus) [2]: 6% | FRET efficiency E (whole cell) [2]: 8%

R90K Vpr-eGFP (natural protein)
FRET efficiency E (whole cell) [3]: 18%

I60A-Vpr-eGFP (natural protein)
FRET efficiency E (nucleus) [4]: 7% | FRET efficiency E (whole cell) [4]: 6%

Vpr-eGFP (natural protein)
FRET efficiency E (cytoplasm) [1]: 23% | FRET efficiency E (nuclear envelope) [1]: 27% | FRET efficiency E (nucleus) [1]: 19% | FRET efficiency E (whole cell) [1]: 23% | FRET efficiency E (cytoplasm) [2]: 14% | FRET efficiency E (nuclear envelope) [2]: 17% | FRET efficiency E (nucleus) [2]: 13% | FRET efficiency E (whole cell) [2]: 15%

W54G Vpr-eGFP (natural protein)
FRET efficiency E (whole cell) [5]: 16%

R77Q Vpr-eGFP (natural protein)
FRET efficiency E (whole cell) [6]: 22%

Q3R Vpr-eGFP (natural protein)
FRET efficiency E (whole cell) [7]: 19%
